# T1: Paxillin LD2 peptide (141-…-153)
# T1 chain: NLSELDRLLLELN
# T2: Peptide 2013, unstapled version of 1907, P49023
# T2 chain: NL
# T3: Stapled peptide 1907, P49023
# T3 chain: NL
# Assays:
# Test in all cases: SPR
# [1] = target: T1, Paxillin LD2 peptide (141-…-153); settings: chain shown with the change, right panel, peptide concentration not given
# [2] = target: T2, Peptide 2013, unstapled version of …; settings: chain shown with the change; right panel; peptide concentration not given
# [3] = target: T3, Stapled peptide 1907, P49023; settings: chain shown with the change; right panel; peptide concentration not given
binder,measurement,setting,value
"Biotinylated AviTag FAK FAT protein, Q05397 I936E; L994E (protein) MAAAYLDPNLNHTPNSSTKTHLGTGMERSPGAMERVLKVFHYFESNSEPTTWASIIRHGDATDVRGIIQKIVDSHKVKHVACYGFRLSHLRSEEVHWLHVDMGVSSVREKYELAHPPEEWKYELRIRYLPKGFLNQFTEDKPTLNFFYQQVKSDYMLEIADQVDQEIALKLGCLEIRRSYWEMRGNALEKKSNYEVLEKDVGLKRFFPKSLLDSVKAKTLRKLIQQTFRQFANLNREESILKFFEILSPVYRFDKECFKCALGSSWIISVELAIGPEEGISYLTDKGCNPTHLADFTQVQTIQYSNSEDKDRKGMLQLKIAGAPEPLTVTAPSLTIAENMADLIDGYCRLVNGTSQSFIIRPQKEGERALPSIPKLANSEKQGMRTHAVSVSETDDYAEIIDEEDTYTMPSTRDYEIQRERIELGRCIGEGQFGDVHQGIYMSPENPALAVAIKTCKNCTSDSVREKFLQEALTMRQFDHPHIVKLIGVITENPVWIIMELCTLGELRSFLQVRKYSLDLASLILYAYQLSTALAYLESKRFVHRDIAARNVLVSSNDCVKLGDFGLSRYMEDSTYYKASKGKLPIKWMAPESINFRRFTSASDVWMFGVCMWEILMHGVKPFQGVKNNDVIGRIENGERLPMPPNCPPTLYSLMTKCWAYDPSRRPRFTELKAQLSTILEEEKAQQEERMRMESRRQATVSWDSGGSDEAPPKPSRPGYPSPRSSEGFYPSPQHMVQTNHYQVSGYPGSHGITAMAGSIYPGQASLLDQTDSWNHRPQEIAMWQPNVEDSTVLDLRGIGQVLPTHLMEERLIRQQQEMEEDQRWLEKEERFLKPDVRLSRGSIDREDGSLQGPIGNQHIYQPVGKPDPAAPPKKPPRPGAPGHLGSLASLSSPADSYNEGVKLQPQEISPPPTANLDRSNDKVYENVTGLVKAVEEMSSKIQPAPPEEYVPMVKEVGLALRTLLATVDETIPLLPASTHREIEMAQKLLNSDEGELINKMKLAQQYVMTSLQQEYKKQMLTAAHALAVDAKNLLDVIDQARLKMLGQTRPH",ratio to parent,[1],4
same,response,"[1]; plateau of the sensorgram near the end of injection (about 75 s), parent: est. 58, read off a plot",14 RU
same,ratio to parent,[2],33
same,ratio to parent,[3],238

# — paper PMC11871066, “Structure-based discovery of hydrocarbon-stapled paxillin peptides that block FAK scaffolding in cancer” (Nature Communications, 2025)
